Source: publication PMC12416549 (2024)
Residue numbers refer to the chain shown, from its start. Names and notes keep the numbering of the source.

T1: TNFR1 (Homo sapiens, UniProt P19438)
T1 chain: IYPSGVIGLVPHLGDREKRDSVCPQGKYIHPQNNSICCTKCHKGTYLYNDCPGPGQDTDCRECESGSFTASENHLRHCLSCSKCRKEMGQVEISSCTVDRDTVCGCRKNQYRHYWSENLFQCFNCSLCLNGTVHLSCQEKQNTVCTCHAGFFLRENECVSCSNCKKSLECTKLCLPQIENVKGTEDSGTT

B1: F63M (designed binder)
chain: MTLQELLREEALRRAEAEAFRYALELLAEKFPEQKEYLLDLAEEIESQIRSLSGVDVEDVRKMLDKEWAWVKELLAEHPAELAEVEAARAARLAELRAEVEAKVAA
B2: E67T (designed binder)
chain: B1 chain with M63F, E67T
B3: H78A (designed binder)
chain: B1 chain with M63F, H78A
B4: L24I (designed binder)
chain: B1 chain with L24I, M63F
B5: Y37D (designed binder)
chain: B1 chain with Y37D, M63F
B6: A88Q (designed binder)
chain: B1 chain with M63F, A88Q
B7: A23S (designed binder)
chain: B1 chain with A23S, M63F
B8: R97M (designed binder)
chain: B1 chain with M63F, R97M
B9: E5C (designed binder)
chain: B1 chain with E5C, M63F
B10: R97D (designed binder)
chain: B1 chain with M63F, R97D
B11: V60G (designed binder)
chain: B1 chain with V60G, M63F
B12: F31G (designed binder)
chain: B1 chain with F31G, M63F
B13: L74T (designed binder)
chain: B1 chain with M63F, L74T
B14: M1K (designed binder)
chain: B1 chain with M1K, M63F
B15: R14N (designed binder)
chain: B1 chain with R14N, M63F
B16: V57F (designed binder)
chain: B1 chain with V57F, M63F
B17: M1F (designed binder)
chain: B1 chain with M1F, M63F
B18: A87G (designed binder)
chain: B1 chain with M63F, A87G
B19: V60I (designed binder)
chain: B1 chain with V60I, M63F
B20: A69N (designed binder)
chain: B1 chain with M63F, A69N
B21: L27N (designed binder)
chain: B1 chain with L27N, M63F
B22: A105I (designed binder)
chain: B1 chain with M63F, A105I
B23: F63Y (designed binder)
chain: B1 chain with M63Y
B24: E25R (designed binder)
chain: B1 chain with E25R, M63F
B25: A42P (designed binder)
chain: B1 chain with A42P, M63F
B26: P79A (designed binder)
chain: B1 chain with M63F, P79A
B27: A69C (designed binder)
chain: B1 chain with M63F, A69C
B28: F31S (designed binder)
chain: B1 chain with F31S, M63F
B29: E29S (designed binder)
chain: B1 chain with E29S, M63F
B30: E10N (designed binder)
chain: B1 chain with E10N, M63F
B31: L39M (designed binder)
chain: B1 chain with L39M, M63F
B32: K103A (designed binder)
chain: B1 chain with M63F, K103A
B33: R13Y (designed binder)
chain: B1 chain with R13Y, M63F
B34: L96A (designed binder)
chain: B1 chain with M63F, L96A
B35: V57A (designed binder)
chain: B1 chain with V57A, M63F
B36: W70C (designed binder)
chain: B1 chain with M63F, W70C
B37: A23E (designed binder)
chain: B1 chain with A23E, M63F
B38: E67N (designed binder)
chain: B1 chain with M63F, E67N
B39: E99M (designed binder)
chain: B1 chain with M63F, E99M
B40: L82Y (designed binder)
chain: B1 chain with M63F, L82Y
B41: A80I (designed binder)
chain: B1 chain with M63F, A80I
B42: E67H (designed binder)
chain: B1 chain with M63F, E67H
B43: E101Y (designed binder)
chain: B1 chain with M63F, E101Y
B44: R21S (designed binder)
chain: B1 chain with R21S, M63F
B45: E99Q (designed binder)
chain: B1 chain with M63F, E99Q
B46: L75Q (designed binder)
chain: B1 chain with M63F, L75Q
B47: D59R (designed binder)
chain: B1 chain with D59R, M63F
B48: A69D (designed binder)
chain: B1 chain with M63F, A69D
B49: W68F (designed binder)
chain: B1 chain with M63F, W68F
B50: A28S (designed binder)
chain: B1 chain with A28S, M63F
B51: P32A (designed binder)
chain: B1 chain with P32A, M63F
B52: P32M (designed binder)
chain: B1 chain with P32M, M63F
B53: V85E (designed binder)
chain: B1 chain with M63F, V85E
B54: K66I (designed binder)
chain: B1 chain with M63F, K66I
B55: L27H (designed binder)
chain: B1 chain with L27H, M63F
B56: A28C (designed binder)
chain: B1 chain with A28C, M63F
B57: A42I (designed binder)
chain: B1 chain with A42I, M63F
B58: A106H (designed binder)
chain: B1 chain with M63F, A106H
B59: E10S (designed binder)
chain: B1 chain with E10S, M63F

Target: T1, TNFR1
Test: yeast display SC50

apparent Kd (screen) [nM] | Binder
1.16 | B1
1.86 | B2
0.539 | B3
0.653 | B4
16.7 | B5
0.49 | B6
0.446 | B7
0.539 | B8
0.79 | B9
0.593 | B10
1.54 | B11
0.869 | B12
2.48 | B13
0.49 | B14
0.593 | B15
0.718 | B16
0.593 | B17
0.869 | B18
0.653 | B19
0.653 | B20

apparent Kd (screen) [nM] | Binder
0.49 | B21
0.869 | B22
12.5 | B23
0.49 | B24
0.49 | B25
0.718 | B26
0.405 | B27
0.956 | B28
0.539 | B29
7.78 | B30
1.4 | B31
0.718 | B32
0.335 | B33
2.73 | B34
0.49 | B35
2.73 | B36
0.49 | B37
1.4 | B38
0.956 | B39
0.718 | B40

apparent Kd (screen) [nM] | Binder
0.593 | B41
0.335 | B42
0.446 | B43
0.539 | B44
0.539 | B45
0.79 | B46
0.539 | B47
0.653 | B48
0.539 | B49
0.79 | B50
0.653 | B51
1.4 | B52
1.05 | B53
0.869 | B54
0.869 | B55
2.25 | B56
0.593 | B57
0.718 | B58
2.25 | B59
